Test results: publication PMC5618632, “In Vitro Glucuronidation of Wushanicaritin by Liver Microsomes, Intestine Microsomes and Expressed Human UDP-Glucuronosyltransferase Enzymes” (International Journal of Molecular Sciences, 2017)
One block for each molecule: values may come before it.

What was measured:
[1] = set-up: method as in PMID 21968061; conditions: DPPH radical scavenging (antioxidant activity); cited from earlier work
expressed human UGT1A1 = target: T1, expressed human UGT1A1 (Homo sapiens, UniProt P22309); assay: Glucuronidation by expressed UGT1A1
T1 sequence (P22309 26-533): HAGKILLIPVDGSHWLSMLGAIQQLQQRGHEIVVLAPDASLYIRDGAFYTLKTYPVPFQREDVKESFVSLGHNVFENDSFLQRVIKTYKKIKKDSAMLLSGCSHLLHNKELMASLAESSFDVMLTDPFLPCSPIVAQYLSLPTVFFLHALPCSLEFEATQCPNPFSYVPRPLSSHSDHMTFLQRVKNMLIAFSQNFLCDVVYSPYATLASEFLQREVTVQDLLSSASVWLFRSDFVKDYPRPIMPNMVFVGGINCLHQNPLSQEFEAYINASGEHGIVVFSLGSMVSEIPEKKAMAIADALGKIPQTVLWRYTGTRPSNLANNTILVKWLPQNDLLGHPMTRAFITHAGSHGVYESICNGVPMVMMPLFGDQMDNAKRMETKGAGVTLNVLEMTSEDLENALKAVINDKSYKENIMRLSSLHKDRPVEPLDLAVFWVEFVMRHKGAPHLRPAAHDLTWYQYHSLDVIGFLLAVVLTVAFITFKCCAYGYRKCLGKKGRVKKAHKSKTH
Procedure: (§1) The reaction was terminated by adding ice-cold acetonitrile. […] All experiments were performed in triplicate.
The gradient elution program was the same as the UPLC condition of the structural identification of wushanicaritin glucuronides above. The detection wavelength was set at 270 nm, and the injection volume was 8 µL.
(§2) The parameter were as follow. V is the formation rate of the product. Vmax is the maximal velocity. […] Ksi is the substrate inhibition constant. […] (1) V=Vmax ×[S]/Km+[S] (2) V=Vmax ×[S]/Km + [S](1+[S]/Ksi)
The contribution of individual expressed UGT enzymes to wushanicaritin glucuronidation in HLM was evaluated by the relative activity factor (RAF) approach as described in previous studies. The relative activity factor was defined as the activity ratio of HLM to an expressed UGT enzyme (Supersome) toward a probe substrate for this enzyme using Equation (3). The relative amount of wushanicaritin glucuronidation in HLM attributed to an expressed UGT enzyme was estimated by multiplying the glucuronidation activity (i.e., the intrinsic clearance) derived with this enzyme by the corresponding RAF. […] The contributions of individual UGT enzyme were calculated according to Equation (4). (3) RAF=CLint{probe,pHLM}/CLint{probe,Supersome} (4) Contribution of UGTs=CLint(wushanica ritin,UGTs)/CLint(wushanica ritin,pHLM)×RAF

[2] = Glucuronidation by pooled human liver microsomes (HLM), UDPGA-supplemented; type: in vitro ADME; conditions: probe substrate glucuronidation
Procedure: as §1, §2

not read [3] = substrate: COc1ccc(-c2oc3c(CCC(C)(C)O)c(O)cc(O)c3c(=O)c2O)cc1; assay: not read; conditions: pH 7.4
Procedure: Briefly, the incubation mixture mainly contained 50 mM Tris-hydrochloric acid buffer (pH 7.4), 0.88 mM MgCl2, 22 µg/mL alamethicin, 4.4 mM saccharolactone and 3.5 mM UDPGA [32]. The reaction was terminated by adding ice-cold acetonitrile. […] The supernatant was subjected to UPLC/Q-TOF-MS (Waters Corporation, Manchester, UK) analysis. […] All experiments were performed in triplicate. Preliminary experiments were performed to ensure that the rates of glucuronidation were determined under linear conditions with respect to the incubation time and protein concentration.
Appropriate models were selected by visual inspection of the Eadie–Hofstee plot [34]. Model fitting and parameter estimation were performed by GraphPad Prism V5 software (GraphPad Software, Inc., San Diego, CA, USA).
V is the formation rate of the product. Vmax is the maximal velocity. Km is the Michaelis constant, and [S] is the substrate. Ksi is the substrate inhibition constant. The intrinsic clearance (CLint) was derived by Vmax/Km for the Michaelis–Menten and substrate inhibition models [12]. (1) V=Vmax ×[S]/Km+[S] (2) V=Vmax ×[S]/Km + [S](1+[S]/Ksi)
(§3) The contribution of individual expressed UGT enzymes to wushanicaritin glucuronidation in HLM was evaluated by the relative activity factor (RAF) approach as described in previous studies [2, 12]. The relative activity factor was defined as the activity ratio of HLM to an expressed UGT enzyme (Supersome) toward a probe substrate for this enzyme using Equation (3). The relative amount of wushanicaritin glucuronidation in HLM attributed to an expressed UGT enzyme was estimated by multiplying the glucuronidation activity (i.e., the intrinsic clearance) derived with this enzyme by the corresponding RAF. […] The contributions of individual UGT enzyme were calculated according to Equation (4). (3) RAF=CLint{probe,pHLM}/CLint{probe,Supersome} (4) Contribution of UGTs=CLint(wushanica ritin,UGTs)/CLint(wushanica ritin,pHLM)×RAF

[4] = substrate: COc1ccc(-c2oc3c(CCC(C)(C)O)c(O)cc(O)c3c(=O)c2O)cc1; assay: Glucuronidation by expressed UGT1A8; type: in vitro ADME, human; conditions: pH 7.4
Procedure: as §1, §2

[5] = substrate: COc1ccc(-c2oc3c(CCC(C)(C)O)c(O)cc(O)c3c(=O)c2O)cc1; assay: Glucuronidation by expressed UGT1A7; type: in vitro ADME, human; conditions: pH 7.4
Procedure: as §1, §2

[6] = substrate: COc1ccc(-c2oc3c(CCC(C)(C)O)c(O)cc(O)c3c(=O)c2O)cc1; assay: Glucuronidation by expressed UGT1A3; type: in vitro ADME, human; conditions: pH 7.4
Procedure: Wushanicaritin was incubated with HLM, HIM and expressed UGTs enzymes to determine the rates of glucuronidation as published previously [12, 23, 31]. Briefly, the incubation mixture mainly contained 50 mM Tris-hydrochloric acid buffer (pH 7.4), 0.88 mM MgCl2, 22 µg/mL alamethicin, 4.4 mM saccharolactone and 3.5 mM UDPGA [32]. The reaction was terminated by adding ice-cold acetonitrile. The samples were vortexed and centrifuged at 13,800× g for 10 min. The supernatant was subjected to UPLC/Q-TOF-MS (Waters Corporation, Manchester, UK) analysis. […] Similarly, wushanicaritin was incubated with DLM, RLM, MkLM, RaLM and GpLM in the same way as for HLM. All experiments were performed in triplicate. Preliminary experiments were performed to ensure that the rates of glucuronidation were determined under linear conditions with respect to the incubation time and protein concentration.
Serial concentrations of wushanicaritin (0.156–20 µM) were incubated with HLM, HIM and expressed UGTs enzymes to determine wushanicaritin glucuronidation rates. […] Appropriate models were selected by visual inspection of the Eadie–Hofstee plot [34]. Model fitting and parameter estimation were performed by GraphPad Prism V5 software (GraphPad Software, Inc., San Diego, CA, USA).
The parameter were as follow. V is the formation rate of the product. Vmax is the maximal velocity. Km is the Michaelis constant, and [S] is the substrate. Ksi is the substrate inhibition constant. The intrinsic clearance (CLint) was derived by Vmax/Km for the Michaelis–Menten and substrate inhibition models [12]. (1) V=Vmax ×[S]/Km+[S] (2) V=Vmax ×[S]/Km + [S](1+[S]/Ksi)
as §3

not read [7] = substrate: C[C@H](CCC(=O)O)[C@H]1CC[C@H]2[C@@H]3[C@H](O)C[C@@H]4C[C@H](O)CC[C@]4(C)[C@H]3CC[C@]12C; assay: not read; conditions: other: probe substrate glucuronidation; UGT1A3; pH 7.4
[8] = other: formation of G1 (3-O-glucuronide), UGT2B7
[9] = other: formation of G2 (7-O-glucuronide), UGT2B7
[10] = other: formation of G1 (3-O-glucuronide)
[11] = other: formation of G2 (7-O-glucuronide)
[12] = other: formation of G1 (3-O-glucuronide), UGT1A1
[13] = other: formation of G2 (7-O-glucuronide), UGT1A1

Molecule: O=C1O[C@H]([C@@H](O)CO)C(O)=C1O [vitamin C, reference compound]
IC50 [1]: 32 µM

Km (expressed human UGT1A1): 25.3 ± 4.28 µM
Molecule: C[C@]12CC[C@@H]3c4ccc(O)cc4CC[C@H]3[C@@H]1CC[C@@H]2O [β-estradiol, reference compound]
Vmax [2]: 0.19 ± 0.09 nmol/min/mg

B1: expressed human UGT2B7 (Homo sapiens) (protein)
chain: GKVLVWAAEYSHWMNIKTILDELIQRGHEVTVLASSASILFDPNNSSALKIEIYPTSLTKTELENFIMQQIKRWSDLPKDTFWLYFSQVQEIMSIFGDITRKFCKDVVSNKKFMKKVQESRFDVIFADAIFPCSELLAELFNIPFVYSLSFSPGYTFEKHSGGFIFPPSYVPVVMSELTDQMTFMERVKNMIYVLYFDFWFEIFDMKKWDQFYSEVLGRPTTLSETMGKADVWLIRNSWNFQFPYPLLPNVDFVGGLHCKPAKPLPKEMEDFVQSSGENGVVVFSLGSMVSNMTEERANVIASALAQIPQKVLWRFDGNKPDTLGLNTRLYKWIPQNDLLGHPKTRAFITHGGANGIYEAIYHGIPMVGIPLFADQPDNIAHMKARGAAVRVDFNTMSSTDLLNALKRVINDPSYKENVMKLSRIQHDQPVKPLDRAVFWIEFVMRHKGAKHLRVAAHDLTWFQYHSLDVIGFLLVCVATVIFIVTKCCLFCFWKFARKAKKGKND
K0.5 (not read [3]; [8]): 2.34 ± 0.19 µM
Vmax (not read [3]; [8]): 3e-05 µmol/min/mg
Vmax/Km (not read [3]; [8]): 10 µL/min/mg
K0.5 (not read [3]; [9]): 5.28 ± 0.98 µM
Vmax (not read [3]; [9]): 1e-05 µmol/min/mg
Vmax/Km (not read [3]; [9]): 2 µL/min/mg

B2: expressed human UGT1A8 (Homo sapiens) (protein)
chain: GKLLVVPMDGSHWFTMQSVVEKLILRGHEVVVVMPEVSWQLGKSLNCTVKTYSTSYTLEDLDREFMDFADAQWKAQVRSLFSLFLSSSNGFFNLFFSHCRSLFNDRKLVEYLKESSFDAVFLDPFDACGLIVAKYFSLPSVVFARGIACHYLEEGAQCPAPLSYVPRILLGFSDAMTFKERVRNHIMHLEEHLFCQYFSKNALEIASEILQTPVTAYDLYSHTSIWLLRTDFVLDYPKPVMPNMIFIGGINCHQGKPLPMEFEAYINASGEHGIVVFSLGSMVSEIPEKKAMAIADALGKIPQTVLWRYTGTRPSNLANNTILVKWLPQNDLLGHPMTRAFITHAGSHGVYESICNGVPMVMMPLFGDQMDNAKRMETKGAGVTLNVLEMTSEDLENALKAVINDKSYKENIMRLSSLHKDRPVEPLDLAVFWVEFVMRHKGAPHLRPAAHDLTWYQYHSLDVIGFLLAVVLTVAFITFKCCAYGYRKCLGKKGRVKKAHKSKTH
notes: purchased Corning Biosciences
K0.5 [4, 10]: 0.38 ± 0.03 µM
Vmax [4, 10]: 2e-05 µmol/min/mg
Vmax/Km [4, 10]: 50 µL/min/mg
K0.5 [4, 11]: 0.58 ± 0.07 µM
Vmax [4, 11]: 7e-05 µmol/min/mg
Vmax/Km [4, 11]: 120 µL/min/mg

B3: expressed human UGT1A1 (Homo sapiens) (protein)
chain: HAGKILLIPVDGSHWLSMLGAIQQLQQRGHEIVVLAPDASLYIRDGAFYTLKTYPVPFQREDVKESFVSLGHNVFENDSFLQRVIKTYKKIKKDSAMLLSGCSHLLHNKELMASLAESSFDVMLTDPFLPCSPIVAQYLSLPTVFFLHALPCSLEFEATQCPNPFSYVPRPLSSHSDHMTFLQRVKNMLIAFSQNFLCDVVYSPYATLASEFLQREVTVQDLLSSASVWLFRSDFVKDYPRPIMPNMVFVGGINCLHQNPLSQEFEAYINASGEHGIVVFSLGSMVSEIPEKKAMAIADALGKIPQTVLWRYTGTRPSNLANNTILVKWLPQNDLLGHPMTRAFITHAGSHGVYESICNGVPMVMMPLFGDQMDNAKRMETKGAGVTLNVLEMTSEDLENALKAVINDKSYKENIMRLSSLHKDRPVEPLDLAVFWVEFVMRHKGAPHLRPAAHDLTWYQYHSLDVIGFLLAVVLTVAFITFKCCAYGYRKCLGKKGRVKKAHKSKTH
K0.5 (not read [3]; [12]): 0.98 ± 0.20 µM
Vmax (not read [3]; [12]): 0.00113 µmol/min/mg
Vmax/Km (not read [3]; [12]): 1160 µL/min/mg
K0.5 (not read [3]; [13]): 0.68 ± 0.08 µM
Vmax (not read [3]; [13]): 0.00011 µmol/min/mg
Vmax/Km (not read [3]; [13]): 160 µL/min/mg

B4: expressed human UGT1A7 (Homo sapiens) (protein)
chain: GKLLVVPMDGSHWFTMQSVVEKLILRGHEVVVVMPEVSWQLGRSLNCTVKTYSTSYTLEDQDREFMVFADARWTAPLRSAFSLLTSSSNGIFDLFFSNCRSLFNDRKLVEYLKESCFDAVFLDPFDACGLIVAKYFSLPSVVFARGIFCHYLEEGAQCPAPLSYVPRLLLGFSDAMTFKERVWNHIMHLEEHLFCPYFFKNVLEIASEILQTPVTAYDLYSHTSIWLLRTDFVLEYPKPVMPNMIFIGGINCHQGKPVPMEFEAYINASGEHGIVVFSLGSMVSEIPEKKAMAIADALGKIPQTVLWRYTGTRPSNLANNTILVKWLPQNDLLGHPMTRAFITHAGSHGVYESICNGVPMVMMPLFGDQMDNAKRMETKGAGVTLNVLEMTSEDLENALKAVINDKSYKENIMRLSSLHKDRPVEPLDLAVFWVEFVMRHKGAPHLRPAAHDLTWYQYHSLDVIGFLLAVVLTVAFITFKCCAYGYRKCLGKKGRVKKAHKSKTH
notes: purchased Corning Biosciences
K0.5 [5, 10]: 0.47 ± 0.03 µM
Vmax [5, 10]: 0.00017 µmol/min/mg
Vmax/Km [5, 10]: 360 µL/min/mg
K0.5 [5, 11]: 0.61 ± 0.08 µM
Vmax [5, 11]: 0.00023 µmol/min/mg
Vmax/Km [5, 11]: 380 µL/min/mg

B5: expressed human UGT1A3 (Homo sapiens) (protein)
chain: GKVLVVPIDGSHWLSMREVLRELHARGHQAVVLTPEVNMHIKEENFFTLTTYAISWTQDEFDRHVLGHTQLYFETEHFLKKFFRSMAMLNNMSLVYHRSCVELLHNEALIRHLNATSFDVVLTDPVNLCAAVLAKYLSIPTVFFLRNIPCDLDFKGTQCPNPSSYIPRLLTTNSDHMTFMQRVKNMLYPLALSYICHAFSAPYASLASELFQREVSVVDILSHASVWLFRGDFVMDYPRPIMPNMVFIGGINCANRKPLSQEFEAYINASGEHGIVVFSLGSMVSEIPEKKAMAIADALGKIPQTVLWRYTGTRPSNLANNTILVKWLPQNDLLGHPMTRAFITHAGSHGVYESICNGVPMVMMPLFGDQMDNAKRMETKGAGVTLNVLEMTSEDLENALKAVINDKSYKENIMRLSSLHKDRPVEPLDLAVFWVEFVMRHKGAPHLRPAAHDLTWYQYHSLDVIGFLLAVVLTVAFITFKCCAYGYRKCLGKKGRVKKAHKSKTH
notes: purchased Corning Biosciences
K0.5 [6, 10]: 0.45 ± 0.04 µM
Vmax [6, 10]: 0.00017 µmol/min/mg
Vmax/Km [6, 10]: 360 µL/min/mg
K0.5 [6, 11]: 0.61 ± 0.08 µM
Vmax [6, 11]: 0.00023 µmol/min/mg
Vmax/Km [6, 11]: 380 µL/min/mg
Km (not read [7]): 10.90 ± 0.74 µM
Vmax (not read [7]): 0.0002 µmol/min/mg
Vmax/Km (not read [7]): 18.5 µL/min/mg
